Results published in US20210292396A1.

What was measured:
Test in all cases: cell-based or functional assay
[1] = target: HIV Env of isolate 0013095-2.11 (HIV)
[2] = target: HIV Env of isolate 3326.v4.c3 (HIV)
[3] = target: HIV Env of isolate CNE31 (HIV)
[4] = target: HIV Env of isolate 6405.v4.c34 (HIV)
[5] = target: Env of HIV isolate MN.3 (clade B) (HIV)
[6] = target: Env of HIV isolate CNE55 (clade AE) (HIV)
[7] = target: Env of HIV isolate 16055-2.3 (clade C) (HIV)
[8] = target: Env of HIV isolate BR07.DG (clade B) (HIV)
[9] = target: Env of HIV isolate A03349M1.vrc4a (clade D) (HIV)
[10] = target: HIV Env of isolate ZM214.15 (HIV)
[11] = target: HIV Env of isolate ZA012.29 (HIV)
[12] = target: Env of HIV isolate C1080.c3 (clade AE) (HIV)
[13] = target: Env of HIV isolate YU2.DG (clade B) (HIV)
[14] = target: Env of HIV isolate 0013095-2.11 (clade C) (HIV)
[15] = target: HIV Env of isolate CAP210.E8 (HIV)
[16] = target: Env of HIV isolate CAP244.D3 (clade C) (HIV)
[17] = target: Env of HIV isolate CNE21 (clade BC) (HIV)
[18] = target: HIV Env of isolate TZBD.02 (HIV)
[19] = target: HIV Env of isolate CNE53 (HIV)
[20] = target: HIV Env of isolate CH070.1 (HIV)
[21] = target: Env of HIV isolate TH023.6 (clade AE) (HIV)
[22] = target: HIV Env of isolate DU151.02 (HIV)
[23] = target: Env of HIV isolate 001428-2.42 (clade C) (HIV)
[24] = target: Env of HIV isolate M02138 (clade AE) (HIV)
[25] = target: Env of HIV isolate CH119.10 (clade BC) (HIV)
[26] = target: Env of HIV isolate 26191-2.48 (clade C) (HIV)
[27] = target: HIV Env of isolate X1193.c1 (HIV)
[28] = target: Env of HIV isolate 3589.v1.c4 (clade AC) (HIV)
[29] = target: Env of HIV isolate RHPA.7 (clade B) (HIV)
[30] = target: Env of HIV isolate 6322.v4.c1 (clade C) (HIV)
[31] = target: Env of HIV isolate WITO.33 (clade B) (HIV)
[32] = target: Env of HIV isolate SC422.8 (clade B) (HIV)
[33] = target: Env of HIV isolate 96ZM651.02 (clade C) (HIV)
[34] = target: HIV Env of isolate ZM197.7 (HIV)
[35] = target: Env of HIV isolate CH038.12 (clade BC) (HIV)
[36] = target: Env of HIV isolate BJOX009000.02.4 (clade AE) (HIV)
[37] = target: Env of HIV isolate 0260.v5.c36 (clade A) (HIV)
[38] = target: Env of HIV isolate 6644.v2.c33 (clade C) (HIV)
[39] = target: HIV Env of isolate 26191-2.48 (HIV)
[40] = target: 208-member cross-clade virus panel
[41] = target: HIV Env of isolate CNE7 (HIV)
[42] = target: Env of HIV isolate 3415.v1.c1 (clade A) (HIV)
[43] = target: Env of HIV isolate Q461.e2 (clade AD) (HIV)

B1: ePGT121.15 (ePGT121.15.H6 VH and ePGT121.15.L1 VL) (antibody, V domains shown)
VH: QMQLQESGPGLVKPGETLSLTCSVSGASISSSYWSWLRETPGKGLEWIGYTHHSGDTNYAPSLKSRVHLGLHPSKNQVSLSLTSVTAADTAVYYCARTLHGRRIYGVVAFNEFFTYFYWEVWGKGTQVTVSS
VL: SDISVAPGETVRISCGGESIGSRAVQWYQHRAGQAPKLIIYNNQDRPPGIPERFSGSPDIDFGTTATLTITNVEAGDEATYYCHIWDSRRPTNWVFGGGTTLTVL
With B1 the IC80, pseudovirus neutralization [1] was 11.9 µg/mL, the IC80, pseudovirus neutralization [2] was 5.05 µg/mL and the IC80, pseudovirus neutralization [3] was 0.147 µg/mL. The IC80, pseudovirus neutralization [4] was 0.009 µg/mL, the IC50, pseudovirus neutralization [5] was 0.004 µg/mL and the IC50, pseudovirus neutralization [6] was greater than 50 µg/mL. The IC50, pseudovirus neutralization [7] was 0.029 µg/mL, the IC50, pseudovirus neutralization [8] was 0.009 µg/mL and the IC50, pseudovirus neutralization [9] was 0.006 µg/mL. The IC80, pseudovirus neutralization [10] was 0.126 µg/mL, the IC80, pseudovirus neutralization [11] was 0.012 µg/mL and the IC50, pseudovirus neutralization [12] was greater than 50 µg/mL. The IC50, pseudovirus neutralization [13] was 0.005 µg/mL, the IC50, pseudovirus neutralization [14] was 3.01 µg/mL and the IC80, pseudovirus neutralization [15] was 0.268 µg/mL. The IC50, pseudovirus neutralization [16] was greater than 50 µg/mL, the IC50, pseudovirus neutralization [17] was 0.002 µg/mL and the IC80, pseudovirus neutralization [18] was 0.007 µg/mL. The IC80, pseudovirus neutralization [19] was 0.015 µg/mL, the IC80, pseudovirus neutralization [20] was 0.004 µg/mL and the IC50, pseudovirus neutralization [21] was greater than 50 µg/mL. For the same binder, the IC80, pseudovirus neutralization [22] was 0.004 µg/mL, the IC50, pseudovirus neutralization [23] was 0.002 µg/mL and the IC50, pseudovirus neutralization [24] was greater than 50 µg/mL. The IC50, pseudovirus neutralization [25] was 0.005 µg/mL, the IC50, pseudovirus neutralization [26] was 0.005 µg/mL and the IC80, pseudovirus neutralization [27] was 0.007 µg/mL. For the same binder, the IC50, pseudovirus neutralization [28] was 0.229 µg/mL, the IC50, pseudovirus neutralization [29] was 0.003 µg/mL and the IC50, pseudovirus neutralization [30] was greater than 50 µg/mL. It also gave an IC50, pseudovirus neutralization [31] of 0.008 µg/mL, an IC50, pseudovirus neutralization [32] of 0.011 µg/mL and an IC50, pseudovirus neutralization [33] of 0.001 µg/mL. For the same binder, the IC80, pseudovirus neutralization [34] was greater than 50 µg/mL, the IC50, pseudovirus neutralization [35] was 0.001 µg/mL and the IC50, pseudovirus neutralization [36] was 0.183 µg/mL. For the same binder, the IC50, pseudovirus neutralization [37] was 0.004 µg/mL, the IC50, pseudovirus neutralization [38] was 0.003 µg/mL and the IC80, pseudovirus neutralization [39] was 0.015 µg/mL. For the same binder, the % vs Neutralized, IC50 < 0.01 ug/ml [40] was 49%, the % vs Neutralized, IC50 < 0.1 ug/ml [40] was 63% and the % vs Neutralized, IC50 < 1.0 ug/ml [40] was 70%. The % vs Neutralized, IC50 < 10 ug/ml [40] was 75%, the % vs Neutralized, IC50 < 50 ug/ml [40] was 77% and the % vs Neutralized, IC80 < 0.01 ug/ml [40] was 26.9%. For the same binder, the % vs Neutralized, IC80 < 0.1 ug/ml [40] was 56.2%, the % vs Neutralized, IC80 < 1.0 ug/ml [40] was 63.5% and the % vs Neutralized, IC80 < 10 ug/ml [40] was 70.2%. For the same binder, the % vs Neutralized, IC80 < 50 ug/ml [40] was 72.6%, the Geometric Mean (IC50) [40] was 0.0148 µg/mL and the Geometric Mean IC80 [40] was 0.0351 µg/mL. For the same binder, the Median IC50 [40] was 0.0055 µg/mL, the Median IC80 [40] was 0.015 µg/mL and the Total VS Neutralized, IC50 < 0.01 ug/ml (viruses of 208) [40] was 101. The Total VS Neutralized, IC50 < 0.1 ug/ml (viruses of 208) [40] was 130, the Total VS Neutralized, IC50 < 1.0 ug/ml (viruses of 208) [40] was 145 and the Total VS Neutralized, IC50 < 10 ug/ml (viruses of 208) [40] was 156. It also gave a Total VS Neutralized, IC50 < 50 ug/ml (viruses of 208) [40] of 160, a Total VS Neutralized, IC80 < 0.01 ug/ml (viruses of 208) [40] of 56 and a Total VS Neutralized, IC80 < 0.1 ug/ml (viruses of 208) [40] of 117. For the same binder, the Total VS Neutralized, IC80 < 1.0 ug/ml (viruses of 208) [40] was 132, the Total VS Neutralized, IC80 < 10 ug/ml (viruses of 208) [40] was 146 and the Total VS Neutralized, IC80 < 50 ug/ml (viruses of 208) [40] was 151. For the same binder, the IC80, pseudovirus neutralization [41] was 0.013 µg/mL, the IC50, pseudovirus neutralization [42] was 0.017 µg/mL and the IC50, pseudovirus neutralization [43] was greater than 50 µg/mL.
